According to paper PMC8597880:

Target: recombinant SARS-CoV-2 RBD, Prototype (SARS-CoV-2, prototype) (UniProt P0DTC2)
Test: BLI

NIH-CoVnb-112 (VHH)
Kd: 1.59 nM | koff: 0.000236 s⁻¹
